B1: N-terminal His-tagged human RNase H1 (recombinant) (enzyme, UniProt O60930 1-286, looked up)
chain: MSWLLFLAHRVALAALPCRRGSRGFGMFYAVRRGRKTGVFLTWNECRAQVDRFPAARFKKFATEDEAWAFVRKSASPEVSEGHENQHGQESEAKASKRLREPLDGDGHESAEPYAKHMKPSVEPAPPVSRDTFSYMGDFVVVYTDGCCSSNGRRRPRAGIGVYWGPGHPLNVGIRLPGRQTNQRAEIHAACKAIEQAKTQNINKLVLYTDSMFTINGITNWVQGWKKNGWKTSAGKEVINKEDFVALERLTQGMDIQWMHVPGHSGFIGNEEADRLAREGAKQSED
notes: human RNase H1, 286 residues (domains printed as aa1-72, aa73-135, aa136-286), in the pET 3C vector; also called His-H1; His-tag RNase H1; source: E. coli BL21 (DE3), lysed in 6 M guanidine, purified (Ni-NTA agarose)
B3: GST-P32 fusion protein (natural protein, human, UniProt Q07021 74-282, looked up)
chain: LHTDGDKAFVDFLSDEIKEERKIQKHKTLPKMSGGWELELNGTEAKLVRKVAGEKITVTFNINNSIPPTFDGEEEPSQGQKVEEQEPELTSTPNFVVEVIKNDDGKKALVLDCHYPEDEVGQEDEAESDIFSIREVSFQSTGESEWKDTNYTLNTDSLDWALYDHLMDFLADRGVDNTFADELVELSTALEHQEYITFLEDLKSFVKSQ

Assays:
GST-P32 fusion protein = molecular target: B3; experiment: pull-down; fixed amount of GST-P32 on GST beads, increasing amounts of RNase H1 (0.025–2.0 µg/400 µl), room temperature 15–20 minutes; glutathione elution; bound RNase H1 and P32 quantified by Western blot against known amounts; conditions: both partners purified
His-RNase H1 = molecular target: T1, His-RNase H1 (Homo sapiens, UniProt O60930 1-286); experiment: EMSA; 2 mM Mg2+, 4 C; EMSA: 20 mM Tris pH 7.0, 20 mM NaCl, 2 mM MgCl2, 5% glycerol, 30 min at 4 C; cleavage buffer (described for IP activity assays; competition conditions by reference): 20 mM Tris pH 7.5, 50 mM NaCl, 2 mM MgCl2, 5 mM 2-mercaptoethanol, 37 C; conditions: protein: recombinant; tags: N-terminal His; label: 32P (5' end)
T1 sequence: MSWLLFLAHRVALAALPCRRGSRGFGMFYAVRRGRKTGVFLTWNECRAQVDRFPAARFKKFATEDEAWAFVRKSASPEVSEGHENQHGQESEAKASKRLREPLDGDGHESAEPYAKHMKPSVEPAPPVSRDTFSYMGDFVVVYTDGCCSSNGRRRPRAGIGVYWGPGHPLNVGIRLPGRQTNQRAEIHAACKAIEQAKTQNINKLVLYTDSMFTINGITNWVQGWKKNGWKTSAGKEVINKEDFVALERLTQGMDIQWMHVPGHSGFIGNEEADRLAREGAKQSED

[1] = molecular target: B1; experiment: cell-based or functional assay

Binder: B1
- stoichiometry N (GST-P32 fusion protein): ~1.43 molecules of RNase H1 to 1 molecule of P32

B2: Duplex B, non-cleavable Apo B 2'-fluoro RNA/DNA heteroduplex (XNA)
RNA: GGAUGGUAGCACAAGUGACA
DNA: TGTCCTTGTGCTACCATCC
modifications: strand 1 uniformly 2'-fluoro RNA; strand 2 DNA
- binding result (His-RNase H1): binds

Binder: B3
- increase in Km of RNase H1 for the RNA/DNA duplex with GST-P32 at H1:P32 ratios of 1:1 and 1:5, against RNase H1 with GST control [1]: ~5 fold
- increase in kcat of RNase H1 cleavage of the RNA/DNA duplex with GST-P32, against control RNase H1 [1]: ~2 fold

Reference: paper PMC3750045, “Human RNase H1 Is Associated with Protein P32 and Is Involved in Mitochondrial Pre-rRNA Processing” (PLoS ONE, 2013)
